Measured values reported in the DeepSol protein solubility set.

Assay: soluble on expression in E. coli; label from the status in PepcDB or PDB records

Sequence | soluble on expression in E. coli
MPMVRNPMFLRMLGGLALALMLSAGRVATADTGTEAARAVVDKLNGALIDVMRNAKQLGYQGRYKKLDPIVREVFQFEAVAQIALGAHWKTLNDDQKREFVKKLTELSIATYAAQFNSYAGEQFQYDSDQAVKPDRVVVRYKMVAPKETPVKFDYMVNQFDGKWEIINIVVDGISDLALKKAQYTSVIDREGFDVLMSKLTQKITDYANNENNSKSLEHHHHHH | soluble
MSLSDPHHPHIQTHNAWVEFPIFDAKSRSLKKAVLGKAGGTIGRNNSNVVVIEALRDITMELNLGDRVGLVGHNGAGKSTLLRLLSGIYEPTRGWAKVTGRVAPVFDLGIGMDPEISGYENIIIRGLFLGQTRKQMQAKVDEIAEFTELGEYLSMPLRTYSTGMRVRLAMGVVTSIDPEILLLDEGIGAVDADFLRKAQSRLQNLVERSGILVFASHSNEFLARLCKTAIWIDHGVIRLAGGIEEVVRAYEGEDAARHVREVLAETEGHHHHHH | soluble
RSARPPGPRVSRARCLPGLIAEQLLQQAARGQDRQQQLQRDPQKALCDLHPSWKEIQALQCRPGHPPEQPWETSQMPESQVKGSRRPKFHARPEDYAVSQPNRDIQEKREASLEESPVALGESASVPQVSETVPASQPLSKKTSSQSNSSSEGSMWATVPSSPTLDRDTASEVDDLEPDSVSLALEMGGSAAPAAPKLKIFMAQYNYNPFEGPNDHPEGELPLTAGDYIYIFGDMDEDGFYEGELDDGRRGLVPSNFVEQIPDSYIPGCLPAKSPDLGPSQLPAGQDEALEEDSLLSGKAQGVVDRGLCQMVRVGSKTEVATEILDTKTEACQLGLLQSMGKQGLSRPLLGTKGVLRMAPMQLHLQNVTATSANITWVYSSHRHPHVVYLDDREHALTPAGVSCYTFQGLCPGTHYRARVEVRLPRDLLQVYWGTMSSTVTFDTLLAGPPYPPLDVLVERHASPGVLVVSWLPVTIDSAGSSNGVQVTGYAVYADGLKVCEVADATAGSTLLEFSQLQVPLTWQKVSVRTMSLCGESLDSVPAQIPEDFFMCHRWPETPPFSYTCGDPSTYRVTFPVCPQKLSLAPPSAKASPHNPGSCGEPQAKFLEAFFEEPPRRQSPVSNLGSEGECPSSGAGSQAQELAEAWEGCRKDLLFQKSPQNHRPPSVSDQPGEKENCSQHMGTSKSPAPGFIHLRTECGPRKEPCQEKAALERVLRQKQDAQGFTPPQLGASQQYASDFHNVLKEEQEALCLDLWGTERREERREPEPHSRQGQALGVKRGCQLHEPSSALCPAPSAKVIKMPRGGPQQLGTGANTPARVFVALSDYNPLVMSANLKAAEEELVFQKKQLLRVWGSQDTHDFYLSECNRQVGNIPGCLVAEMEVGTEQTDRRWRSPAQGHLPSVAHLEDFQGLTIPQGSSLVLQGNSKRLPLWTPKIMIAALDYDPGDGQMGGQGKGRLALRAGDVVMVYGPMDDQGFYYGELGGHRGLVPAHLLDHMSLHGH | soluble
MTHPFEPFFDKDSKILILGSFPSIKSRQDGFYYQHPRNRFWPILETLFNAKLENITEQQAFLRKKHIALWDVLQSCKIKNSDDKTISYAKANDLNLILSQTKIQAIFTTGQSAYRFFVKFHPRLEAIALPSTSPANLNFSFEQLLQNYEIIKKFTKLEHHHHHH | not soluble
GMGNIYQITVEEKAEHQRTLSFEFSLHDDLFKLLEKVDGKMDMTPEQTQAFMVGLKLFGEVMMQQRKHPLFKEFSAPFRAFMMNLKKQ | soluble
MAMDNQGWFSNETATFGDRLAGAREAAGLTQEEMARRLGVRLKTLQSWEDDLAEPRANRLQMMAGMLNVSLRWLLTGEGEGAEGPSEPAILTSEGREALAELARMRTQMLALAQEMGQLEKRMRALLRKEAE | not soluble
MGHHHHHHSHMLAQPEPLVWVSKWVDYSNKFGFGYQLSSRRVAVLFNDGTHMALSANRKTVHYNPTSTKHFSFSVGAVPRALQPQLGILRYFASYMEQHLMKGGDLPSVEEVEVPAPPLLLQWVKTDQALLMLFSDGTVQVNFYGDHTKLILSGWEPLLVTFVARNRSACTYLASHLRQLGCSPDLRQRLRYALRLLRDRSPA | not soluble
MSLEYNLTTTEIELVNVTASWDEGIGELFEKIKQENKANGQPNGDAGLFFTNLYVTPVLKNISLYLEKGQMLAVAGSTGSGKSSLLMMILGELVPSEGKIRHSGRISFSPQTSWIMPGTIRDNILFGLTYDEFRYTSVIKACQLEEDLALLPEKDKTPLMEGGVTLSGGQRARIGLARAVYKDADLYLLDSPFTHLDIVTEKEIFERCLCKLLSSKTRIVVTSKLEHLKRADKILLLHNGVCYFYGSFSELQAKRPDFSSLLLGLEAYDNIKAERRSSILTETLRRVSIDESTVFRGEGHHHHHH | soluble
GPGSMGQVGGTATSGRGLTALQVAAALRVTAAARLKQAEAAVSSSQAMHSAHCSIAEQSKAIKPEDCSAVQRLTVPSTDHKGKHVEVRVTEYAPDVFSFLRQLKGVTDPQFADEWSLPENRLKMEMGEGRSQALFLKSKTMLLMCKTISVEEVHALLHVLRAYTLHITAHPSSLLMRFYMLLKVSVRSEEGYILCFNDVFGTASVLHEKWDIKGRVPKNGKHLHYPHLIGSGYEPDPHATKPPPKRHVLANPAIDASQQHPGRESAVVVRGTKDAQGLPTLHDKDLTRLFWVPRTARKRLVEELLRDYDFLKNAGMMDYSLLIGVAYQDDKTRPSDKHCGIESTNVTSSSAVAPASTSAEARPASLAQDSHPSGTRTMLTTVPEFANGVRSFDGQEMYYIGVIDVLTTYTLKKKSANFFKSLLWKQKTLSTIPPDRYAQRIASFTELIFPDVKEEANGG | not soluble
MATNKERLFAAGALGPGSGYPGAGFPFAFPGALRGSPPFEMLSPSFRGLGQPDLPKEMASLSVETQSTSSEEMVPSSPSPPPPPRVYKPCFVCNDKSSGYHYGVSSCEGCKGFFRRSIQKNMVYTCHRDKNCIINKVTRNRCQYCRLQKCFEVGMSKEAVRNDRNKKKKEVKEEGSPDSYELSPQLEELITKVSKAHQETFPSLCQLGKYTTNSSADHRVQLDLGLWDKFSELATKCIIKIVEFAKRLPGFTGLSIADQITLLKAACLDILMLRICTRYTPEQDTMTFSDGLTLNRTQMHNAGFGPLTDLVFAFAGQLLPLEMDDTETGLLSAICLICGDRMDLEEPEKVDKLQEPLLEALRLYARRRRPSQPYMFPRMLMKITDLRGISTKGAERAITLKMEIPGPMPPLIREMLENPEMFEDDSSQPGPHPNASSEDEVPGGQGKGGLKSPA | soluble
MSFESNQLMPIAALRGGPGTPAADVLTAFALRRKAEGIDVVGVIVPPEDAGSGHQGHGHGEGHGGGHEGCECRSELIDIATGDRYAMHQDLGSGSQACNLNSSSLALAAGAVERAVARKPALVVLSRFGGQEAVRGGLMSAFQAAIAAGVPVACVVTPKAEDVWNDFAQGLSVSLPPEADALEAWWRDHARGRNAALEHHHHHH | not soluble
MSLLALGIEGTAHTLGIGIVSEKKVLANVFDTLTTEKGGIHPKEAAEHHARLMKPLLKKALEKAGISMDDIDVIAFSQGPGLGPALRVVATAARALAIRYNKPIVGVNHCIAHVEITKMFGIKDPVGLYVSGGNTQVLALEGGRYRVFGETLDIGIGNAIDVFARELGLGFPGGPKLEKLAEKGKNYIDLPYAVKGMDLSFSGLLTEAIRKYRSGKFRVEDLAYSFQETAFAALVEVTERALAHTEKKEVVLVGGVAANNRLREMLKIMAEDRGVKFFVPPYDLCRDNGAMIAYTGLRMYKAGISFPLEKTIVKQKFRTDEVEITWEGHHHHHH | not soluble
MTKDRQIKKTKTAIYSAFIALLQKKEYSKITVRDMITLANVGRSTFYAHYESKEMLLKELCEELFHHLFRQKRNVTFEDYLVHILKHFEQNKDSIATLLLSNDPYFLLRFKNELEHDVYPNLRCKYIDKTTIPEVFLKQFVLSSFIETLKWWLHQRQRMSANELLKYYLELIK | soluble
MMAYKSLLTVLTDPKIAPATLAQLVALAEAQDAHAEALCLGVDRSQTGYYYAGANALILQETLNRANAEAEEVLTLAQDTLGKSGVRWSAESGVAQIADLGRHVAHRARFSDLVVLSRPYGEDRGSEAEPIVEAAMFEGHAPVLVVPDNAPPLKQPRTVLLGWNESVEAMRAIRLAMPFLRAADLVRIVVIDPPRHGPDRSDPGGLLSQMLARHGVKVEIDVLSKTMTRVSDILNRHATDTSADMLVMGAYGHSRFREAILGGATRNMLEQATVPVFMAH | not soluble
MAKPDQLELLFDVAPPADPASAAPPGAPPRKTPKARPAPPAPAAIATPCPDPLPPGARWREVHTEQQPIGFVLLRSRRRSIGFVVADDGLRVTAPNWVTLGQIDDAVREKARWILAKLRDWHARKEQLAMAHTRWQAGGELPYLGKRIVLGLGAERRQACLSGDADAPCDGDTLWLALPVDADQARIRDAAQAWLQQRAGAWFGARLAHFLQLTGLRIRRWRLSSAATRWGSCTSDGNIMLNWRLIHFAPAIIDYVIAHELAHLREMNHSQDFWTEVGHILPGFEDAKNVLRRHDPATLPQFLEHHHHHH | soluble
MGSLRLLADIQGEDLESLYGYAKQLFDGGEIAAARNVYQLLSTLDHWNFDYLLALGLCHQRLGAHNEAVVCFGRAGLIKVDDPRAAFYAGISYRLDGNAEYASKAFKAAINWCGEQIDYQAIKASAVDMLALQQEEVPLEHHHHHH | not soluble
MSLIVLGLEGTAHTISCGIIDESRILAMESSMYRPKTGGIRPLDAAVHHSEVIDTVISRALEKAKISIHDIDLIGFSMGPGLAPSLRVTATAARTISVLTGKPIIGVNHPLGHIEIGRRVTGAIDPVMLYVSGGNTQVIAHVNGRYRVLGETLDIGIGNMIDKFAREAGIPFPGGPEIEKLAMKGTKLLDLPYSVKGMDTAFSGILTAALQYLKTGQAIEDISYSIQETAFAMLVEVLERALYVSGKDEILMAGGVALNRRLRDMVTNMAREAGIRSYLTDREYCMDNGIMIAQAALLMYKSGVRMSVEETAVNPRFRIDEVDAPWITDASRKDYGKAGAESRIEEVSFHGRPAIRKVRISKSYRNSDLDKKIRYERMRNEFTILRKLKEAGVNSPVVYDFDPFSMSITMQKIPGRMMSAELNEGRTDFLNELGIMIAKMHRAGIAHGDLTVNNIIVNDSVFIIDPSMGKVNAEIEDMAVDIYALEDSIKGLGLDSGSVIGQMLKSYRNNFNLADDVLETVSAIRRRHRYVEGHHHHHH | not soluble
MLNNGTFPLVFQFIHRRRKLLYYTKYHIFQQQLADGALEVEYCEASLYSMKEIKEINRELKRDYKRFQNRILELERNNEEYLVDDIVEFKKKKSHRSYLLMQYIETQISYKKKMGKDGIAAAYHSTYISLKKYIGMKSARKSDIRMEEINFSFVVGYEDYLNAQGLARNTINYYLRNFRTIYNSSIRDGFKPKSENPFTYIQTKPCKTIKRAINKDDMKKLSSLILPVHSGMDIARDMYLFSFYAQGMAFVDIVFLKKKNIRDGILSYRRHKSQQLIHIVITPQMQGLIDKYANDSEYVFPIIDTSLSTSIYDQYRLALGRVNRYLKKITFRLNINVRLTTYTARHTWATLARESGAPISIISAGLGHTSEEMTRVYLKEFDQETLARVNRIVTNLL | not soluble
MGSDKIHHHHHHMPDNPTIATLPDSQGHNHRADVQLNQLQCDSTKPNDIRPNAIMPSAIEPNAIKHESVVAEQKQKVIFIGLPRTGTTSVSVALLEQGLKVAHMAFTKAAFMQADAISDAPCFSDFKQLDKLFPDAKFVYIERELDSWVPSMQMLLSRMLPHLDAKSGRFHPIMKRSFRHSFGVGVVENPQDEQHLIDCYQRHKTEVVNYFAGRHDLLCIDVSQQGALGQLLAFMGLAATENQQNFPKLNVGRNVASWDEYKHPNKISANASGPDKRKFFDYKI | not soluble
